Two molecules from patent US20110178027A1 (SOCIETE DE COMMERCIALISATION DES PRODUITS DE LA RECHERCHE …, published 2011) can be followed below.

Experiment [1] deals with T1, PC2 (UniProt P16519 110-638, limits assumed).
T1 sequence (looked up): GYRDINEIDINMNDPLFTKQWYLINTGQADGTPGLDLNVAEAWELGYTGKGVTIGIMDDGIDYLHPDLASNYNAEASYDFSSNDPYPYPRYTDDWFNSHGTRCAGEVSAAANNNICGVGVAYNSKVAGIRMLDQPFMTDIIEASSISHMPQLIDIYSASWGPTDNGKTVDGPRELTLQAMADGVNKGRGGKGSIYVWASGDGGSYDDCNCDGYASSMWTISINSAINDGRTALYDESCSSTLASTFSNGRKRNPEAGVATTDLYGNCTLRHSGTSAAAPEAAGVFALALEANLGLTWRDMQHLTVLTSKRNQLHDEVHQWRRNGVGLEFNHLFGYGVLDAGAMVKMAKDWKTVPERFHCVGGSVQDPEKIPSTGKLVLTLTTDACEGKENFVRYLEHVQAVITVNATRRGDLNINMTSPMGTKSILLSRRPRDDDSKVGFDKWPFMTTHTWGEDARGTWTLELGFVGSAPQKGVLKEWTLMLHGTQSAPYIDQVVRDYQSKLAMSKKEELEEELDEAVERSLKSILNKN
The experiment can be described thus: enzyme inhibition assay, fluorogenic substrate PyrRTKR-MCA.
Experimental: (§1) Enzyme inhibition assays for furin (FIG. 5D) were performed in 100 mM Hepes pH 7.5, 1 mM CaCl₂, 1 mM β-mercaptoethanol, 0.5 μg/μL BSA. Assays for PC2 (FIG. 5E) were performed in 20 mM Bis-Tris pH 5.7, 1 mM CaCl₂, 0.1% Brij-30. Assays for PC1/3, PC4, PACE4, PC5/6 and PC7 (FIGS. 5F, G, A, B and C respectively) were performed in 20 mM Bis-T is pH 6.5, 1 mM CaCl₂. […] Inhibitory peptides were added to the enzymes at decreasing concentrations from 100 μM to 50 nM and incubated 5 minutes prior to the addition of substrate. […] Each Kᵢ value is the mean of 2 to 10 independent experiments.

Experiment [2] deals with T2, PACE4 (UniProt P29122 150-969, limits assumed).
T2 sequence (looked up): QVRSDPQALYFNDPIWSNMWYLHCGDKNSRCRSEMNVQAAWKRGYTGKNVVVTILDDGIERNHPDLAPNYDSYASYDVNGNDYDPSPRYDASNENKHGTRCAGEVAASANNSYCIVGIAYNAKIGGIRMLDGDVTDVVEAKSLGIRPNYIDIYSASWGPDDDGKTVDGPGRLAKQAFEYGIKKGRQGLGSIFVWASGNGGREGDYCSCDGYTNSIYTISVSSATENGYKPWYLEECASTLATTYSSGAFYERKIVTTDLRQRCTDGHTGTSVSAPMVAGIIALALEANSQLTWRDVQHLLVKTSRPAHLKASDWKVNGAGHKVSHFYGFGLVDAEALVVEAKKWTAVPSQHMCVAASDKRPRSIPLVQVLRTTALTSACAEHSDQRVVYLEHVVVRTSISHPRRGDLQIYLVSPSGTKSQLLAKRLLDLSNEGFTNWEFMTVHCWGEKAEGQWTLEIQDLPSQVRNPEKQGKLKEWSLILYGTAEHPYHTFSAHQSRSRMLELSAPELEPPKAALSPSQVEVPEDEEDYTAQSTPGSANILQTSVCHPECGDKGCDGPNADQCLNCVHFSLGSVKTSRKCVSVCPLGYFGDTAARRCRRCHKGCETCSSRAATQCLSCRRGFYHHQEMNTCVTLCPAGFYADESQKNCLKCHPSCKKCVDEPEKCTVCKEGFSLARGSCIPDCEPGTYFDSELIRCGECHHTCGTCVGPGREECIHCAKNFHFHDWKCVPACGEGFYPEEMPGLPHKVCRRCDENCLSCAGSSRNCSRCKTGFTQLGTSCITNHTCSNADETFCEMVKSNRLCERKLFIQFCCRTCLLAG
Described as above.
Experimental: as §1

Experiment [3] has as its target T3, PC7 (UniProt Q16549 142-667, limits assumed).
T3 sequence (looked up): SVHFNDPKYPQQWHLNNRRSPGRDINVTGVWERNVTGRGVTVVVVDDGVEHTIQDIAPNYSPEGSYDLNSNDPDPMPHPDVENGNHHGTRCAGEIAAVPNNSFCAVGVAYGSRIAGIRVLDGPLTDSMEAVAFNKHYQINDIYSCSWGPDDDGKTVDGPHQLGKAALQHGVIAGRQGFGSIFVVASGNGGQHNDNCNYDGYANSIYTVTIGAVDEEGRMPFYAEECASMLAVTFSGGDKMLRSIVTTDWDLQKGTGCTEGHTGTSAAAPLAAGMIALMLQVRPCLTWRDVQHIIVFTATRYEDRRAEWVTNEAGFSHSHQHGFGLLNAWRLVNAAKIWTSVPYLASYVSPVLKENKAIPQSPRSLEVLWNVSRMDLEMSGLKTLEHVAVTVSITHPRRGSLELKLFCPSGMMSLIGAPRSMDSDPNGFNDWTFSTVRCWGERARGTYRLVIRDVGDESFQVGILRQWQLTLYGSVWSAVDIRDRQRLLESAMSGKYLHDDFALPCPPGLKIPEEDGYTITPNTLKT
The description is as above.
Experimental: as §1

Experiment [4] addresses T4, PC5/6 (UniProt Q92824-2 115-913, limits assumed).
T4 sequence (looked up): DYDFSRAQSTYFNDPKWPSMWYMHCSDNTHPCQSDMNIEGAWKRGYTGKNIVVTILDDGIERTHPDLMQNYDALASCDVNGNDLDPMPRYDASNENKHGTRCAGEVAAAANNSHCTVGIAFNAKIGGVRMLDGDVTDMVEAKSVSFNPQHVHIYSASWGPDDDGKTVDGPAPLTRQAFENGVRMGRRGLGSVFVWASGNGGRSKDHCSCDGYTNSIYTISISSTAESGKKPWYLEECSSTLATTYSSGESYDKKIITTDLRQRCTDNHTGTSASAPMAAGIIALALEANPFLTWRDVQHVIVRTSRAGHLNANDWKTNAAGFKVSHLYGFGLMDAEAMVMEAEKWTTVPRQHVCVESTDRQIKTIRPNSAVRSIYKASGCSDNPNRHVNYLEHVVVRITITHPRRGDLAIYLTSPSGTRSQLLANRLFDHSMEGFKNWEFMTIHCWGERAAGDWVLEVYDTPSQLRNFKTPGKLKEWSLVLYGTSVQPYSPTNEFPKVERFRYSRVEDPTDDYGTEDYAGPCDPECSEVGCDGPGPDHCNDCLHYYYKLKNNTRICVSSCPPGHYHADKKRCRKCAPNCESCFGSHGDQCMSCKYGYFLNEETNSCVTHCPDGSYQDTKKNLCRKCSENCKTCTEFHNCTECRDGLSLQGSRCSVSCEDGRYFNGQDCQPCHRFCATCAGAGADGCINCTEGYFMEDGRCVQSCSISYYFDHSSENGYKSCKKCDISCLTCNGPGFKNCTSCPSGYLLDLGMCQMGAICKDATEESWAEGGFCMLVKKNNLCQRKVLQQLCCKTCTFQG
The description is as above.
Experimental: as §1

For experiment [5], the target named is furin (UniProt P09958 108-715, limits assumed). The experiment is described as above.
Sequence of furin (P09958 108-715 limits assumed): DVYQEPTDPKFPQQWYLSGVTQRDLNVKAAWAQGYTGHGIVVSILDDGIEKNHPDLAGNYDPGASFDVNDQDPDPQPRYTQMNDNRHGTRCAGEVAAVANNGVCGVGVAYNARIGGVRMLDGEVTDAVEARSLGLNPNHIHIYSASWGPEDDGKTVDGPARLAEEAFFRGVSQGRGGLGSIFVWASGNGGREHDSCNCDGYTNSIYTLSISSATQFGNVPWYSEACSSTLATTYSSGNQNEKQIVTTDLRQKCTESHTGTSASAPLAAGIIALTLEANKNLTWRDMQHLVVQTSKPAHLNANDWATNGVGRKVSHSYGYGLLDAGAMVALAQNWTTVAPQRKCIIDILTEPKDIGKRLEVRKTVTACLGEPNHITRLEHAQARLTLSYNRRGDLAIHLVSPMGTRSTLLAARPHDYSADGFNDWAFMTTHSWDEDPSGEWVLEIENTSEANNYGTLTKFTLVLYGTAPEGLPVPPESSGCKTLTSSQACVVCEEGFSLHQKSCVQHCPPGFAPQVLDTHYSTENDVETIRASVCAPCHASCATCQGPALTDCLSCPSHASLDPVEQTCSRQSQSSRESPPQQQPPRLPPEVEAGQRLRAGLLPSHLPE
Experimental: as §1
For experiment [6], the target named is T5, PC4 (UniProt Q6UW60 114-708, limits assumed).
T5 sequence (looked up): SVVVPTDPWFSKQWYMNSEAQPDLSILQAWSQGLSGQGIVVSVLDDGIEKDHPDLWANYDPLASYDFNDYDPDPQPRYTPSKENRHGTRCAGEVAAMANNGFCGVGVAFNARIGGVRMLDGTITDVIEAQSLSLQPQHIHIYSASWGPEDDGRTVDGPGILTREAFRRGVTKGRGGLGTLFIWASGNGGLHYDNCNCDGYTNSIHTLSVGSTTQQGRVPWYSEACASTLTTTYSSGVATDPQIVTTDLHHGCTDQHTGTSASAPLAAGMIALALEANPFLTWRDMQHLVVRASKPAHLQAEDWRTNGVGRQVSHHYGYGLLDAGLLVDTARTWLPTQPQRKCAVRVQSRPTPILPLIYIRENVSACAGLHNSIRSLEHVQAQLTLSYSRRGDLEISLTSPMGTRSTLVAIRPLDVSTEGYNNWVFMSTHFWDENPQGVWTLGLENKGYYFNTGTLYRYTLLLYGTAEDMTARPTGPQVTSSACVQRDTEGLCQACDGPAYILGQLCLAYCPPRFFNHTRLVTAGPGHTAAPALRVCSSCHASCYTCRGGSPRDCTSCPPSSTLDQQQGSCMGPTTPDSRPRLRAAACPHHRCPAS
The experiment is described as above.
Experimental: as §1

Experiment [7] concerns the target T6, PC1/3 (UniProt P29120 111-753, limits assumed).
T6 sequence (looked up): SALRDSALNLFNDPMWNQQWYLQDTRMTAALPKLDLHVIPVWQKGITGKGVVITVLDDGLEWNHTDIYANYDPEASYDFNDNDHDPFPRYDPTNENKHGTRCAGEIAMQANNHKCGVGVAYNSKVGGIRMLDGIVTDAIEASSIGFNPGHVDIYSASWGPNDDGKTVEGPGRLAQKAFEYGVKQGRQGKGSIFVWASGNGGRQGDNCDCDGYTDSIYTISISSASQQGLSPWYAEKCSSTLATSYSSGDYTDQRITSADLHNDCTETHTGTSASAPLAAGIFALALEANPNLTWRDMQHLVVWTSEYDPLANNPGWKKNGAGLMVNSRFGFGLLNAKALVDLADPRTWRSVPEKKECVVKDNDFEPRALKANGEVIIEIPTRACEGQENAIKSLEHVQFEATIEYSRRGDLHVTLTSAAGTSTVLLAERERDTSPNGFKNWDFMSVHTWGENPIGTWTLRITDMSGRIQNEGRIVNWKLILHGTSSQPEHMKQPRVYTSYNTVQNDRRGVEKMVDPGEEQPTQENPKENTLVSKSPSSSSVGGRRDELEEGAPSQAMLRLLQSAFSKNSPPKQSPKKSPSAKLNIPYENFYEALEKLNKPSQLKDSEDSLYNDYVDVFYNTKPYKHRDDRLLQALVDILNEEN
Described as above.
Experimental: as §1

Experiment [8] addresses T2, PACE4. Kind of experiment: enzyme inhibition assay, ratio of Ki values against the other PCs.
Experimental: as §1

Values joined by “and” are separate entries in the source; they are usually repeats but may differ in a detail not shown here. Equal values may be shown once. No end group written: not given here.

By Ki is commonly meant a measure of affinity in units of concentration, obtained from inhibition or displacement. For the molecule LLLLRVKR-NH2 (also called 4 Leu; Multi-Leu (ML)) [LLLLRVKR-NH2], the inhibitory constant (Ki) in experiment [1] was 18800 nM; in experiment [2] it was 6 nM and 5.5 nM and 5 nM; in experiment [3], 54 nM and 50 nM; in experiment [4], 245 nM; in experiment [5], 114 nM; in experiment [6] it was 205 nM. Also, in experiment [7], the Ki worked out at 454 nM. The “fold more effective on PACE4 than the other PCs” value in experiment [8] is not below 9 fold.

B1: LLLLLRVKR-NH2 (peptide)
peptide: LLLLLRVKR-NH2
notes: also called 5 Leu; multi-leucine peptide containing five leucines
In experiment [6], B1 had a Ki of 164 nM.
